Measurements reported in US20030040461.

T1: purified recombinant SLP-76
T1 sequence (Q13094 1-533, species assumed, looked up): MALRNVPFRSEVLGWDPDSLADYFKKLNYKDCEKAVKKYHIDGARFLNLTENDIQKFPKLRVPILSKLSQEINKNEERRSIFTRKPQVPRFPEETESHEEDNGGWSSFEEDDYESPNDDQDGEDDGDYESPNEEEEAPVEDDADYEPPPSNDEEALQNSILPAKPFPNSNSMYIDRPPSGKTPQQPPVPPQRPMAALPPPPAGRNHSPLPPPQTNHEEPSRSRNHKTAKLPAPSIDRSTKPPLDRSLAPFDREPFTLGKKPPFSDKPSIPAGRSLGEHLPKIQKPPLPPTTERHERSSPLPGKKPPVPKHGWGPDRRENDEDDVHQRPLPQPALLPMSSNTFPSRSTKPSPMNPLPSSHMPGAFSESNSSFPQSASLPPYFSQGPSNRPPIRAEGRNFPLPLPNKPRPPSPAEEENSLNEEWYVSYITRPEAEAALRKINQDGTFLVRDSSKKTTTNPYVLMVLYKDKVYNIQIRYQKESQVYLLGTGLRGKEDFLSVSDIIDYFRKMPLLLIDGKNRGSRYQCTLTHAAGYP


Test system: T1, purified recombinant SLP-76

Protein	phosphorylation of SLP 76 (incorporation of phosphotyrosine into the substrate, IP kinase assay)	kinase activity
FLAG-BTK wild-type (murine BTK with N-terminal 3XFLAG tag) (enzyme, N-terminal 3xFLAG tag) MAAVILESIFLKRSQQKKKTSPLNFKKRLFLLTVHKLSYYEYDFERGRRGSKKGSIDVEKITCVETVIPEKNPPPERQIPRRGEESSEMEQISIIERFPYPFQVVYDEGPLYVFSPTEELRKRWIHQLKNVIRYNSDLVQKYHPCFWIDGQYLCCSQTAKNAMGCQILENRNGSLKPGSSHRKTKKPLPPTPEEDQILKKPLPPEPTAAPISTTELKKVVALYDYMPMNANDLQLRKGEEYFILEESNLPWWRARDKNGQEGYIPSNYITEAEDSIEMYEWYSKHMTRSQAEQLLKQEGKEGGFIVRDSSKAGKYTVSVFAKSTGEPQGVIRHYVVCSTPQSQYYLAEKHLFSTIPELINYHQHNSAGLISRLKYPVSKQNKNAPSTAGLGYGSWEIDPKDLTFLKELGTGQFGVVKYGKWRGQYDVAIKMIREGSMSEDEFIEEAKVMMNLSHEKLVQLYGVCTKQRPIFIITEYMANGCLLNYLREMRHRFQTQQLLEMCKDVCEAMEYLESKQFLHRDLAARNCLVNDQGVVKVSDFGLSRYVLDDEYTSSVGSKFPVRWSPPEVLMYSKFSSKSDIWAFGVLMWEIYSLGKMPYERFTNSETAEHIAQGLRLYRPHLASERVYTIMYSCWHEKADERPSFKILLSNILDVMDEES	addition of immunoprecipitated wild-type BTK resulted in phosphorylation of both BTK itself and the SLP 76 target	–
FLAG-BTK R28C (xid mutant of murine BTK with N-terminal 3XFLAG tag) (enzyme, N-terminal 3xFLAG tag) MAAVILESIFLKRSQQKKKTSPLNFKKCLFLLTVHKLSYYEYDFERGRRGSKKGSIDVEKITCVETVIPEKNPPPERQIPRRGEESSEMEQISIIERFPYPFQVVYDEGPLYVFSPTEELRKRWIHQLKNVIRYNSDLVQKYHPCFWIDGQYLCCSQTAKNAMGCQILENRNGSLKPGSSHRKTKKPLPPTPEEDQILKKPLPPEPTAAPISTTELKKVVALYDYMPMNANDLQLRKGEEYFILEESNLPWWRARDKNGQEGYIPSNYITEAEDSIEMYEWYSKHMTRSQAEQLLKQEGKEGGFIVRDSSKAGKYTVSVFAKSTGEPQGVIRHYVVCSTPQSQYYLAEKHLFSTIPELINYHQHNSAGLISRLKYPVSKQNKNAPSTAGLGYGSWEIDPKDLTFLKELGTGQFGVVKYGKWRGQYDVAIKMIREGSMSEDEFIEEAKVMMNLSHEKLVQLYGVCTKQRPIFIITEYMANGCLLNYLREMRHRFQTQQLLEMCKDVCEAMEYLESKQFLHRDLAARNCLVNDQGVVKVSDFGLSRYVLDDEYTSSVGSKFPVRWSPPEVLMYSKFSSKSDIWAFGVLMWEIYSLGKMPYERFTNSETAEHIAQGLRLYRPHLASERVYTIMYSCWHEKADERPSFKILLSNILDVMDEES	Addition of BTK immunoprecipitated from the xid construct cell lysate resulted in hyperphosphorylation of the SLP 76 target	the kinase activity of BTK isolated from the xid mutant stable cell pool was significantly higher (approximately 10 fold)
FLAG-BTK K430R (dominant negative mutant of murine BTK with N-terminal 3XFLAG tag) (enzyme, N-terminal 3xFLAG tag) MAAVILESIFLKRSQQKKKTSPLNFKKRLFLLTVHKLSYYEYDFERGRRGSKKGSIDVEKITCVETVIPEKNPPPERQIPRRGEESSEMEQISIIERFPYPFQVVYDEGPLYVFSPTEELRKRWIHQLKNVIRYNSDLVQKYHPCFWIDGQYLCCSQTAKNAMGCQILENRNGSLKPGSSHRKTKKPLPPTPEEDQILKKPLPPEPTAAPISTTELKKVVALYDYMPMNANDLQLRKGEEYFILEESNLPWWRARDKNGQEGYIPSNYITEAEDSIEMYEWYSKHMTRSQAEQLLKQEGKEGGFIVRDSSKAGKYTVSVFAKSTGEPQGVIRHYVVCSTPQSQYYLAEKHLFSTIPELINYHQHNSAGLISRLKYPVSKQNKNAPSTAGLGYGSWEIDPKDLTFLKELGTGQFGVVKYGKWRGQYDVAIRMIREGSMSEDEFIEEAKVMMNLSHEKLVQLYGVCTKQRPIFIITEYMANGCLLNYLREMRHRFQTQQLLEMCKDVCEAMEYLESKQFLHRDLAARNCLVNDQGVVKVSDFGLSRYVLDDEYTSSVGSKFPVRWSPPEVLMYSKFSSKSDIWAFGVLMWEIYSLGKMPYERFTNSETAEHIAQGLRLYRPHLASERVYTIMYSCWHEKADERPSFKILLSNILDVMDEES	Phosphorylation using extracts from the “gain of function” and dominant negative mutant cell contracts appeared to be reduced compared to the wild-type BTK	–
FLAG-BTK E41K (gain of function mutant of murine BTK with N-terminal 3XFLAG tag) (enzyme, N-terminal 3xFLAG tag) MAAVILESIFLKRSQQKKKTSPLNFKKRLFLLTVHKLSYYKYDFERGRRGSKKGSIDVEKITCVETVIPEKNPPPERQIPRRGEESSEMEQISIIERFPYPFQVVYDEGPLYVFSPTEELRKRWIHQLKNVIRYNSDLVQKYHPCFWIDGQYLCCSQTAKNAMGCQILENRNGSLKPGSSHRKTKKPLPPTPEEDQILKKPLPPEPTAAPISTTELKKVVALYDYMPMNANDLQLRKGEEYFILEESNLPWWRARDKNGQEGYIPSNYITEAEDSIEMYEWYSKHMTRSQAEQLLKQEGKEGGFIVRDSSKAGKYTVSVFAKSTGEPQGVIRHYVVCSTPQSQYYLAEKHLFSTIPELINYHQHNSAGLISRLKYPVSKQNKNAPSTAGLGYGSWEIDPKDLTFLKELGTGQFGVVKYGKWRGQYDVAIKMIREGSMSEDEFIEEAKVMMNLSHEKLVQLYGVCTKQRPIFIITEYMANGCLLNYLREMRHRFQTQQLLEMCKDVCEAMEYLESKQFLHRDLAARNCLVNDQGVVKVSDFGLSRYVLDDEYTSSVGSKFPVRWSPPEVLMYSKFSSKSDIWAFGVLMWEIYSLGKMPYERFTNSETAEHIAQGLRLYRPHLASERVYTIMYSCWHEKADERPSFKILLSNILDVMDEES	Phosphorylation using extracts from the “gain of function” and dominant negative mutant cell contracts appeared to be reduced compared to the wild-type BTK	–
